# Measurements taken from patent publication US20220098328A1, “ANTIBODIES TO M(H)DM2/4 AND THEIR USE IN DIAGNOSING AND TREATING CANCER” (NomoCan Pharmaceuticals LLC, priority 2017, published 2022).
# Substitutions are numbered along the chain they refer to.
# B1: NMC-103: mouse monoclonal antibody of the IgG1 isotype that binds to NMC-P1 (SEQ ID NO:1); VH SEQ ID NO:36, VL SEQ ID NO:37 (antibody, V domains shown)
# VH: EVQLQESGGGLVQPGGSLRLSCTTSGFTFTHYYMSWVRQPPGKALEWLGFIRNKAKGYTAEYSASVKGRFTISRDNSQSILYLQMNTLRPEDSATYYCARDIGDNWGQGTLVTVSS
# VL: DIVMTQAAFSNPVTLGTSASISCRSSKNLLHSNGITYLYWYLQRPGQSPQLLISRVSNLASGVPNRFSGSESGTDFTLRISRVEAEDVGVYFCAQLLELPYTFGGGTKLEIK
# modifications: mAb NMC-103 Heavy Chain Variable Region; mAb NMC-103 Light Chain Variable Region
# B2: NMC-H103 (VH4/VK3): humanized NMC-103 variant, human IgG1, VH4 (SEQ ID NO:299) and VK3 (SEQ ID NO:297) (antibody, V domains shown)
# VH: B1 VH with Q5V, G16P, P40A, A44G, Q78K, I80T, T87S, P90A, S93T, T95V
# VL: B1 VL with A7T, A8P, F9L, N11S, T17Q, S18P, R44K, N65D, R79K, L109V
# modifications: human IgG1 constant regions lacking entries; mAb NMC-H103.VH4Heavy Chain Variable Region; mAb NMC-H103.VK3Light Chain Variable Region
# Columns and labels:
# [1] = system: mouse pancreatic cancer Panc-2 cells; assay: Panc-2 syngeneic mouse model of pancreatic cancer; format: in vivo
# Procedure: Methodology used (Syngeneic Mouse Models of lung, colon and pancreatic cancer): To investigate the anti-tumor effects of HDM2-specific antibodies on lung, colon and pancreatic tumors in vivo, three well-known syngeneic mouse models of lung, colon and pancreatic cancer were used (Sharma et al., 1999, J. Immunol. 163 (9):5020-5028; McIntyre, 2015, Bioassays 37(8):909-920; Li, et al., 2015, Sci. Rep. 5:7856). Subcutaneous tumors were prepared by implanting either mouse Lewis Lung cancer LL/2 cells (2.5×10^5 cells/mouse), mouse colon cancer MC-38 cells (5×10^5 cells/mouse) or mouse pancreatic cancer Panc-2 cells (2×10^6 cells/mouse) in the right flanks of 8-week-old female C57BL/6 mice (n=6-7). The mice were returned to their respective cages after tumor implantation. From day 7 after tumor implantation, the tumor volumes were measured 2 times/week with a digital caliper. In the case of MC-38 and Panc-2 study, treatment started when the tumors reached an average of 70-80 mm^3. In the case of LL/2 study, tumor cell inoculation and treatment were initiated simultaneously. Mice were micro-chipped and registered following tumor implantation. Tumor volume measurements and body weights were recorded and mice were randomized into groups that received: A) mAb NMC-103 at 0.4 mg/kg (3 times a week for 3 weeks), 2 mg/kg (2 times a week for 3 weeks), or 4 mg/kg (2 times a week for 3 weeks); B) NMC-204 at 0.4 mg/kg (3 times a week for 3 weeks); C) isotype control mouse IgG1 (Abcam, Cat. No. ab18447) or IgG3 (Abcam, Cat. No. ab18392) at 0.4 mg/kg (3 times a week for 3 weeks) or 4 mg/kg (2 times a week for 3 weeks); D) Gemcitabine (25 mg/kg) and nab-paclitaxel (5 mg/kg) 2 times a week for 3 weeks; or E) a combination of gemcitabine (25 mg/kg), nab-paclitaxel (5 mg/kg) and mAb NMC-103 (2 mg/kg; 2 times a week for 3 weeks) or (10 mg/kg; 2 times a week for 2 weeks). All tumors were injected subcutaneously and all treatments were performed by intraperitoneal injection. Any mouse displaying prolonged adverse clinical signs, or with body weight loss exceeding 15% relative to body weight at day 0, was euthanized. Tumor measurements from post-treatment with HDM2-specific antibodies versus isotype control mouse antibodies versus standard of care treatment (gemcitabine and nab-paclitaxel) were made, and results are presented in FIGS. 16-19.
# The anti-tumor efficacy of NMC-103 and of its combination with pancreatic cancer standard of care treatment Gemcitabine (G) and nab-Paclitaxel (nP) was further evaluated in vivo utilizing the Panc-2 syngeneic mouse model of pancreatic cancer discussed above. In this Panc-2 study, treatment started after Panc-2 cell inoculation and when the tumors reached 80-100 mm^3, with mAb NMC-103 administered at 10 mg/kg, two times a week in a larger number of mice (n=8/group) than that used for the study of FIG. 19.
# Evaluation of anti-tumor effects of antibody OP145 on pancreatic tumor growth in vivo: Subcutaneous tumors were prepared by implanting Panc02 cells (2×10^6 per mouse) in the right flanks of female 8-week-old C57BL/6 mice. The mice were returned to their respective cages after tumor implantation. From day 7 after tumor implantation, the tumor volumes were measured 2 times/week with a digital caliper. Treatment started when the tumors reached an average of 200 mm^3 (see FIG. 26, day 14). Mice were micro-chipped and registered following tumor implantation. Tumor volume measurements and body weights were recorded and mice were randomized into two groups that received either OP145 antibody (by intra-tumoral injection of 0.1 mg/kg of mouse monoclonal antibody OP145, 3 times per week) or PBS. Three mice were treated with OP145, and five mice were treated with PBS. Any mouse displaying prolonged adverse clinical signs, or with body weight loss exceeding 15% from Day 0 body weight, was euthanized. Tumor measurements from the first 10 days post treatment with OP145 antibody versus PBS were made, and results are represented in FIG. 26. […]
# [2] = system: HeLa cervical cancer cells; assay: Cell-ELISA on intact cells; format: cell-based, human; details: mAb 5 μg/mL
# Procedure: In a 96-well microplate, 15,000 cells/well were cultured overnight. The next day, unbound cells were washed off with sterile 1×PBS. The cells in each well were fixed with freshly prepared 4% buffered paraformaldehyde (pH 7.2) for 1 hour, followed by 3 washes with 1×PBS. The wells were then blocked with 5% BSA in PBS (100 μl/well) for 2 hours at room temperature. Microplate wells were then washed 5 times with 300 μl of ice cold 1×PBS. Monoclonal antibodies NMC-H103 (VH4/VK3) or NMC-C303 at 5 μg/mL in 1% BSA/PBS were then incubated with various cancer cells for 2 hours at room temperature. Wells were then washed with 300 μl of ice-cold 1×PBS for 5 times and corresponding secondary antibody HRP-GaH F(ab′)2 diluted 1:2000 or 1:4000 in PBS with 1% BSA were added at 100 μl/well for 1 hour at room temperature followed by washing 5 times with 300 μl of ice-cold 1×PBS. TMB Substrate Solution (1-Step™ Ultra TMB-ELISA, ThermoFisher, Cat. No. 34028) was then added at 50 μL to each microplate well and incubated at room temperature for 30 minutes. The reaction was stopped by addition of 50 μL of stop solution (ThermoFisher, Cat. No. SS04) to each well and absorbance of each well was measured at OD450 nm. The absorbance value of each experimental well was corrected for the absorbance value obtained from wells treated with isotype-identical mAbs included in each experiment.
molecule,measurement,setting,value
B1,average tumor volume,"[1]; Panc-2, n=6, start at ~70 mm^3, i.p. 2 times a week for 3 weeks (6th dose day 19), then 2 weeks off, antibody 2 mg/kg, Gemcitabine 25 mg/kg, nab-Paclitaxel 5 mg/kg, by day 35",1523 mm^3
same,average tumor size / measurement,"[1]; Panc-02, start at 80-100 mm^3, n=8/group, i.p. 2 times a week for 4 weeks, NMC-103 10 mg/kg, Gemcitabine 25 mg/kg, nab-Paclitaxel 5 mg/kg, by day 34, in NMC-103 groups attributed to scar and inflammation",230 mm^3
same,tumor size 6 days post single i.p. injection,"[1]; Panc-2, mice pre-treated with Gemcitabine 25 mg/kg + nab-Paclitaxel 5 mg/kg for 19 days (~450 mm^3), single dose 10 mg/kg, from 438 mm^3",233 mm^3
same,tumor growth during 4 further weeks without drug treatment,"[1]; Panc-02 study of FIG. 27, up to 62 days since start",no sign of tumor growth beyond the initial scar size
same,Kaplan Meier survival analysis,"[1]; conditions of FIG. 27, compared to chemotherapy alone or control antibody",significant survival benefit
same,tumor 10 days after re-challenge with Panc-2 cells,"[1]; previously treated mice re-challenged at day 62, 2×10^6 cells s.c. left dorsal flank, no further drug",no tumor was observed
B2,"binding to intact, un-permeabilized cells, cell-based ELISA",[2],binding
